We go through three molecules from article PMC11259713, “Splicing factor hnRNPA1 regulates alternative splicing of LOXL2 to enhance the production of LOXL2Δ13”.

Conditions in all cases: protein: recombinant; tags: His (pET-32a vector)
Series [1] addresses S91D/S95D-His (UniProt P09651-2 1-320, S91D;S95D). Description: BLI; similar or stronger affinity than WT but reduced binding amount; KD only in figure; BLI: PBS, 0.002% Tween-20, 0.02% BSA, temperature not stated; pull-down: lysate in 150 mM KCl, 0.5 mM DTT, 0.5% NP-40, 25 mM Tris-HCl pH 7.5, 4 C overnight. For orientation: Biolayer interferometry detects binding as a change in optical thickness at a sensor tip.

The target in series [2] is S91A/S95A-His (UniProt P09651-2 1-320, S91A;S95A). The series can be described thus: BLI; protein on Ni-NTA probe; affinity and amount higher than WT; KD only in figure; BLI: PBS, 0.002% Tween-20, 0.02% BSA, temperature not stated; pull-down: lysate in 150 mM KCl, 0.5 mM DTT, 0.5% NP-40, 25 mM Tris-HCl pH 7.5, 4 C overnight.
Series [3] concerns the target T1, hnRNPA1-His (hnRNPA1A) (UniProt P09651-2 1-320). Description: BLI; protein on Ni-NTA probe; KD only in figure; BLI: PBS, 0.002% Tween-20, 0.02% BSA, temperature not stated; pull-down: lysate in 150 mM KCl, 0.5 mM DTT, 0.5% NP-40, 25 mM Tris-HCl pH 7.5, 4 C overnight.
Series [4] has as its target T1, hnRNPA1-His (hnRNPA1A). The series can be described thus: BLI; RNA on streptavidin probe; lower KD than oligo2 but less protein bound; value only in figure; BLI: PBS, 0.002% Tween-20, 0.02% BSA, temperature not stated; pull-down: lysate in 150 mM KCl, 0.5 mM DTT, 0.5% NP-40, 25 mM Tris-HCl pH 7.5, 4 C overnight.
For series [5], the target named is T1, hnRNPA1-His (hnRNPA1A). Description: pull-down; purified protein; BLI: PBS, 0.002% Tween-20, 0.02% BSA, temperature not stated; pull-down: lysate in 150 mM KCl, 0.5 mM DTT, 0.5% NP-40, 25 mM Tris-HCl pH 7.5, 4 C overnight.

T1 sequence (P09651 other isoform, or with tags, fused parts or gaps): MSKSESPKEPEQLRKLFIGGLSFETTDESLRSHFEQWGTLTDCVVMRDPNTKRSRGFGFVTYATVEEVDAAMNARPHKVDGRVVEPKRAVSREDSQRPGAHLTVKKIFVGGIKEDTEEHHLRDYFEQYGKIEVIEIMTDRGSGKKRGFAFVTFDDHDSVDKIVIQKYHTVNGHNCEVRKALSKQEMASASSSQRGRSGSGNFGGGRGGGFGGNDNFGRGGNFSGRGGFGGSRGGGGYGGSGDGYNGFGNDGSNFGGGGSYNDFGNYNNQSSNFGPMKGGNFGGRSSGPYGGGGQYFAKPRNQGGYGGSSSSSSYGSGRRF
S91A/S95A-His, sequence (P09651 other isoform, or with tags, fused parts or gaps S91A;S95A | S91A S95A S91A S95A): as the sequence (P09651 other isoform, or with tags, fused parts or gaps) above, with S91A, S95A counted along it
S91D/S95D-His, sequence (P09651 other isoform, or with tags, fused parts or gaps S91D;S95D | S91D S95D S91D S95D): as the sequence (P09651 other isoform, or with tags, fused parts or gaps) above, with S91D, S95D counted along it

As for ACAACUGCCACAUAGGUAAGGCCAGGCCGC (ssRNA) [oligo2], the binding result in series [1], in series [2] and in series [3] was “binds” in each case. For ACAACUGCCACACCGGUAAGGCCAGGCCGC (ssRNA) [oligo2-U13C+A14C], in series [4], the binding result was “binds”. Regarding AGCAGCCUCCUCUGCCCUGCUUCUCCCUAGGUUGUU (ssRNA) [oligo1], the binding result in series [5] is reported as “binds”.
